Patent US20220168346A1 (published 2022)

T1: gp100 peptide on HLA-C*07:01 (human)
T1 peptide: RYGSFSVTL


Legend:
[1] = target: C*07:01/gp100479-487 multimer (human; mouse) (UniProt P01901); experiment: pHLA multimer staining of TILs after one peptide-specific stimulation with C*07:01-artificial APCs (day 14), flow cytometry
[2] = target: C*07:01/gp100479-487 multimer (human; mouse) (UniProt P01901); experiment: pHLA multimer staining of TILs before stimulation (day 0), flow cytometry
[3] = target: T1, gp100 peptide on HLA-C*07:01; experiment: multimer staining
Experimental: T cells (1×10⁵) were incubated for 30 minutes at 37° C. in the presence of 50 nM dasatinib (LC laboratories). The cells were then washed and incubated with 5-10 μg/ml of multimer for 30 minutes at room temperature, and R-phycoerythrin-conjugated AffiniPure Fab fragment goat anti-mouse IgG1 (Jackson ImmunoResearch Laboratories) was added for 15 minutes at 4° C. Next, the cells were washed three times and costained with an anti-CD8 mAb for 15 minutes at 4° C. Dead cells were finally discriminated using the LIVE/DEAD Fixable Dead Cell Stain kit.

Row | percentage of multimer+ cells in CD8+ T cells [1] | percentage of multimer+ cells in CD8+ T cells [2] | binding result [3] | Molecule
1 | 1.2% | 0.14% | – | C*07:01+ melanoma TILs
2 | – | – | recognises | C*07:01/gp100479-487 TCR (TCR, V domains shown) Valpha: DQQVKQNSPSLSVQEGRISILNCDYTNSMFDYFLWYKKYPAEGPTFLISISSIKDKNEDGRFTVFLNKSAKHLSLHIVPSQPGDSAVYFCAANSGNTPLVFGKGTRLSVIA Vbeta: EPEVTQTPSHQVTQMGQEVILRCVPISNHLYFYWYRQILGQKVEFLVSFYNNEISEKSEIFDDQFSVERPDGSNFTLKIRSTKLEDSAMYFCASSLMGGGNTIYFGEGSWLTVV
